Reference: article PMC5405039, “Genome-wide identification of grain filling genes regulated by the OsSMF1 transcription factor in rice”

T1: OsSMF1 (RISBZ1, OsbZIP58)-DsRed fusion (Oryza sativa cv. Ilmi, UniProt Q6ZLB0 1-436)
T1 sequence: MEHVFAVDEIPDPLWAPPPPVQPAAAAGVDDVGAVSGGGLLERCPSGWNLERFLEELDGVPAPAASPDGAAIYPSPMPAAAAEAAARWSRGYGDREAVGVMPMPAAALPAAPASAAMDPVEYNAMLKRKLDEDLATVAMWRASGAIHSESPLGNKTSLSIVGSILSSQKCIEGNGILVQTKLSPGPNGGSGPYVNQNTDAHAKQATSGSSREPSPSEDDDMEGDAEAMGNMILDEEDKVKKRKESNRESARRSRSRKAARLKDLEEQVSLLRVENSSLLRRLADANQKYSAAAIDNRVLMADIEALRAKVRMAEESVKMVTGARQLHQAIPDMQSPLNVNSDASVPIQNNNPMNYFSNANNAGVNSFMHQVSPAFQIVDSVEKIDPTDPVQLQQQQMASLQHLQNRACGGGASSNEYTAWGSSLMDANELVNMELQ


Molecular target: T1, OsSMF1 (RISBZ1, OsbZIP58)-DsRed fusion
Assay: EMSA (SYBR Gold); 5 mM MgCl2; Kd EMSA: 10 mM Tris, 50 mM KCl, 1 mM DTT pH 7.5, 50 ng/ul poly(dI-dC), 2.5% glycerol, 0.05% NP-40, 5 mM MgCl2, 0.2 ug/ul OsSMF1, DNA 0-6 uM, 1 h room temperatur
Conditions: protein: recombinant; tags: DsRed fusion; Ni-NTA purified; chain copies: 2; SYBR Gold stain (Kd); 21 bp

Binder	Kd [nM]
GCN4 21-bp wild type (dsDNA) DNA 1: GTTTGTCATGGCTGAGTCATG DNA 2: CATGACTCAGCCATGACAAAC	646
ATGA 21-bp wild type (dsDNA) DNA 1: CTGATTCGGATGACGGACGAA DNA 2: TTCGTCCGTCATCCGAATCAG	1120
ACGT 21-bp wild type (dsDNA) DNA 1: AAGCGCCACGTCAGCCAAAAC DNA 2: GTTTTGGCTGACGTGGCGCTT	335
